US20030232420A1 (SEQUENOM, published 2003)
Where two headings read alike, the source gives them in different places. Ends that are not written are not given here.

Assays:
GFP-RIIα D/D [1] = target: T1, GFP-RIIα D/D (mouse, UniProt P12367 1-46); experiment: SPOT peptide array, anti-GFP detection
T1 construct: range 1-46; His tag cleaved with thrombin; also called GFP-RII D/D; D/D domain of mouse RIIα (residues 1-46) fused to GFP; not shown: green fluorescent protein (GFP)
Protocol: (§1) In addition, the minimal sequence required for regulatory subunit binding was also assessed using N- and C-terminal truncations of the 27-residue human D-AKAP2 sequence. N-terminal or C-terminal truncated peptides were synthesized using SPOT synthesis on cellulose membrane as described herein. Binding was evaluated by incubating each membrane with GFP-RIα D/D and GFP-RIIα D/D as indicated below. The dimerization/docking (D/D) domain of bovine RIα (residues 1-109) and mouse RIIα (residues 1-46), fused to green fluorescence protein (GFP) were subcloned into a pRSET expression vector (Invitrogen, Carlsbad, Calif.) downstream of a histidine tag. The proteins, GFP-RIα D/D and GFP-RIIα D/D were expressed in E. coli BL21 (DE3) and purified using Talon (Clontech, Palo Alto, Calif.) resin. The His tag was cleaved using thrombin and the protein further purified using an S75-Sephadex (16/60) gel filtration column (Pharmacia, Peapack, N.J.) in 50 mM MES pH 5.8, 50 mM NaCl, 2 mM EDTA, 2 mM EGTA, 2 mM DTT. The protein was stored at 4° C.
(§2) Bound protein was detected using a primary antibody against GFP and enzyme conjugated secondary antibody for amplification of signal. The membrane was then analyzed by chemiluminescence.

GFP-RIα D/D [2] = target: T2, GFP-RIα D/D (bovine, UniProt P00514 1-109); experiment: SPOT peptide array, anti-GFP detection
T2 construct: range 1-109; His tag cleaved with thrombin; also called dimerization/docking (D/D) domain of bovine RIα (residues 1-109) fused to GFP; not shown: green fluorescent protein (GFP)
T2 sequence (P00514 1-109): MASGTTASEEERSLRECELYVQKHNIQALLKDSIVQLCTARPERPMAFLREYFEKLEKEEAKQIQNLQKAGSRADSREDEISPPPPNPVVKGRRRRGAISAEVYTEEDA
Protocol: as §1, §2

GFP-RIIα D/D [3] = target: T1, GFP-RIIα D/D; experiment: SPOT peptide array, anti-GFP detection; remark: listed apart in the source
GFP-RIα D/D [4] = target: T2, GFP-RIα D/D; experiment: SPOT peptide array, anti-GFP detection; remark: listed apart in the source
Full-length bovine RIα = target: T3, Full-length bovine RIα (bovine, UniProt P00514 1-380); experiment: fluorescence anisotropy, labeled peptide
T3 construct: mature; given as full-length
T3 sequence (P00514 whole entry): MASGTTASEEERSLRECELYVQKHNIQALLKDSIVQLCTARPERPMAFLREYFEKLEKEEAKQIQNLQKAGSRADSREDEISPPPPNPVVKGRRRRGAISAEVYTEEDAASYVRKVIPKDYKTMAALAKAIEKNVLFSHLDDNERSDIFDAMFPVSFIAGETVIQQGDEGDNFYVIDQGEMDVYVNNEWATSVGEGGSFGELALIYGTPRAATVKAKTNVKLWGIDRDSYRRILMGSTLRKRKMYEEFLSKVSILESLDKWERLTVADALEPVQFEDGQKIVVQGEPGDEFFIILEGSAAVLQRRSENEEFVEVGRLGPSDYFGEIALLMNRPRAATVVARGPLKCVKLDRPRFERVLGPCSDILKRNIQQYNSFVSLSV
Protocol: (§3) Binding of each fluorescently labeled peptide to the regulatory subunits was monitored using fluorescence anisotropy. RIα and RIIα were serially diluted beginning at 1 μM and 0.1 μM, respectively, into 10 mM HEPES pH 7.4, 0.15 M NaCl, 3 mM EDTA, 0.005% Surfactant P20 (Biacore) containing either 10 nM or 1 nM of fluorescently labeled peptide for RIα and RIIα, respectively. The samples were equilibrated for at least 1 hour at room temperature and fluorescence anisotropy monitored using a Fluoromax-2 (Jobin Yvon Horiba, SPEX Division, Edison, N.J.) equipped with Glan-Thompson polarizers. The rhodamine-labeled peptide was excited at 541 nm (5-10 nm bandpass) and emission monitored at 575 nm (5-10 nm bandpass). The anisotropy was calculated directly with the Fluoromax software using the following equation: […]
(§4) Several additional truncated and substituted peptides were synthesized and their affinity to RIα and RIIα evaluated using fluorescence anisotropy (see Table 8). Binding was evaluated for both RIα and RIIα0 using fluorescence anisotropy as described herein. Substituted residues are in bold Table 8. Tryptophan at a position corresponding to residue 21 of SEQ ID NO:2 is important for discriminating against binding to the RIIα subunit.

Full-length murine RIIα = target: T4, Full-length murine RIIα (murine, UniProt P12367 2-401); experiment: fluorescence anisotropy, labeled peptide
T4 construct: mature; given as full-length
T4 sequence (P12367 2-401): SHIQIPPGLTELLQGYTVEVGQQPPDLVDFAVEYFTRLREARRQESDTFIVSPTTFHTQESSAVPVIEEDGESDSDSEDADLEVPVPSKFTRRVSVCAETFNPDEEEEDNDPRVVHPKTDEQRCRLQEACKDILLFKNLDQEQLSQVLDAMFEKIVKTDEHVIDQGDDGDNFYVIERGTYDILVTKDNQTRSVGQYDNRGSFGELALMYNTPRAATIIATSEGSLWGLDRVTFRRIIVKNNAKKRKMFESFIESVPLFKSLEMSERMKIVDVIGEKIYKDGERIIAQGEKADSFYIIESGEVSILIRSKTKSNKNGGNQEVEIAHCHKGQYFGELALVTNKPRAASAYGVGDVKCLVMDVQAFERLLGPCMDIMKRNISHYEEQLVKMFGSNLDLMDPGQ
Protocol: as §3, §4

T1 sequence (P12367 1-46): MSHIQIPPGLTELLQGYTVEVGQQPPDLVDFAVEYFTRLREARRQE

| Binder | binding result (GFP-RIIα D/D [1]) | binding result (GFP-RIα D/D [2]) | binding result (GFP-RIIα D/D [3]) | also measured |
| --- | --- | --- | --- | --- |
| VQGNTDEAQE (also: cellulose-bound) [SEQ ID NO:99 peptide] | no binding | no binding | – | – |
| VQGNTDEAQEE (also: cellulose-bound) [SEQ ID NO:98 peptide] | no binding | no binding | – | – |
| AQEELAWKIAKMIVSDIMQQ (also: cellulose-bound) [SEQ ID NO:72 peptide] | – | – | binds | binding result (GFP-RIα D/D [4]): binds |
| GNTDEAQEELAWKIAKMIVSDIMQQ (also: cellulose-bound) [SEQ ID NO:67 peptide] | – | – | binds | binding result (GFP-RIα D/D [4]): binds |
| VQGNTDEAQEELAWK (also: cellulose-bound) [SEQ ID NO:94 peptide] | no binding | no binding | – | – |
| NTDEAQEELAWKIAKMIVSDIMQQ (also: cellulose-bound) [SEQ ID NO:68 peptide] | – | – | binds | binding result (GFP-RIα D/D [4]): binds |
| ELAWKIAKMIVSDIMQQ (also: cellulose-bound) [SEQ ID NO:75 peptide] | – | – | binds | binding result (GFP-RIα D/D [4]): binds |
| VQGNTDEAQEELAWKIAKM (also: cellulose-bound) [SEQ ID NO:90 peptide] | no binding | no binding | – | – |
| FEELAWKIAKMIWSDVMQQC(tetramethylrhodamine‑5‑maleimide)-NH2 [PV-37 (SEQ ID NO:104) FEELAWKIAKMIWSDVMQQC, rhodamine-labeled] | – | – | – | Kd (Full-length bovine RIα): 19 nM; Kd (Full-length murine RIIα): 150 nM |
| QEEFAWKIAKMIVSDVFQQC(tetramethylrhodamine‑5‑maleimide)-NH2 [PV-47 (SEQ ID NO:105) QEEFAWKIAKMIVSDVFQQC, rhodamine-labeled] | – | – | – | Kd (Full-length bovine RIα): 39 nM; Kd (Full-length murine RIIα): 89 nM |
| FEELAWKIAKMIISDVFQQC(tetramethylrhodamine‑5‑maleimide)-NH2 [PV-49 (SEQ ID NO:107) FEELAWKIAKMIISDVFQQC, rhodamine-labeled] | – | – | – | Kd (Full-length bovine RIα): 1.1 nM; Kd (Full-length murine RIIα): 2.5 nM |
| QEEFAWKIAKMIISDVFQQC(tetramethylrhodamine‑5‑maleimide)-NH2 [PV-48 (SEQ ID NO:106) QEEFAWKIAKMIISDVFQQC, rhodamine-labeled] | – | – | – | Kd (Full-length bovine RIα): 12 nM; Kd (Full-length murine RIIα): 124 nM |
| VQGNTDEAQEELAWKIAKMI (also: cellulose-bound) [SEQ ID NO:89 peptide] | no binding | no binding | – | – |
| VQGNTDEAQEELAWKIAKMIVSDIMQ (also: cellulose-bound) [SEQ ID NO:83 peptide] | binds | binds | – | – |
| VQGNTDEAQEELAWKIAKMIV (also: cellulose-bound) [SEQ ID NO:88 peptide] | binds | no binding | – | – |
| EAQEELAWKIAKMIVSDIMQQ (also: cellulose-bound) [SEQ ID NO:71 peptide] | – | – | binds | binding result (GFP-RIα D/D [4]): binds |
| DEAQEELAWKIAKMIVSDIMQQ (also: cellulose-bound) [SEQ ID NO:70 peptide] | – | – | binds | binding result (GFP-RIα D/D [4]): binds |
| VQGNTDEAQEELAWKIAKMIVSDIM (also: cellulose-bound) [SEQ ID NO:84 peptide] | binds | binds | – | – |

| Binder | binding result (GFP-RIIα D/D [1]) | binding result (GFP-RIα D/D [2]) | binding result (GFP-RIIα D/D [3]) | also measured |
| --- | --- | --- | --- | --- |
| VQGNTDEAQEELAW (also: cellulose-bound) [SEQ ID NO:95 peptide] | no binding | no binding | – | – |
| QGNTDEAQEELAWKIAKMIVSDIMQQ (also: cellulose-bound) [SEQ ID NO:66 peptide] | – | – | binds | binding result (GFP-RIα D/D [4]): binds |
| VQGNTDEAQEELAWKI (also: cellulose-bound) [SEQ ID NO:93 peptide] | no binding | no binding | – | – |
| VQGNTDEAQEELAWKIAKMIVS (also: cellulose-bound) [SEQ ID NO:87 peptide] | binds | no binding | – | – |
| VQGNTDEAQEELAWKIAK (also: cellulose-bound) [SEQ ID NO:91 peptide] | no binding | no binding | – | – |
| Ac-DLAWKIAKMIVSDVMQQC(tetramethylrhodamine‑5‑maleimide)-NH2 [SEQ ID NO:112 peptide Ac-DLAWKIAKMIVSDVMQQC, rhodamine-labeled] | – | – | – | Kd (Full-length bovine RIα): 773 nM; Kd (Full-length murine RIIα): 107 nM |
| VQGNTDEAQEELAWKIAKMIWSDVMQQC(tetramethylrhodamine‑5‑maleimide)-NH2 (also called single mutant V21W) [SEQ ID NO:111 peptide (. . . QEELAWKIAKMIWSDVMQQC), rhodamine-labeled] | – | – | – | Kd (Full-length bovine RIα): 120 nM; Kd (Full-length murine RIIα): 83 nM |
| VQGNTDEAQEELAWKIAKMIVSD (also: cellulose-bound) [SEQ ID NO:86 peptide] | binds | no binding | – | – |
| AWKIAKMIVSDIMQQ (also: cellulose-bound) [SEQ ID NO:77 peptide] | – | – | binds | – |
| VQGNTDEAQEEL (also: cellulose-bound) [SEQ ID NO:97 peptide] | no binding | no binding | – | – |
| VQGNTDEAQEELAWKIA (also: cellulose-bound) [SEQ ID NO:92 peptide] | no binding | no binding | – | – |
| EELAWKIAKMIVSDIMQQ (also: cellulose-bound) [SEQ ID NO:74 peptide] | – | – | binds | binding result (GFP-RIα D/D [4]): binds |
| VQGNTDEAQEELAWKIAKMIVSDI (also: cellulose-bound) [SEQ ID NO:85 peptide] | binds | binds | – | – |
| QEELAWKIAKMIVSDIMQQ (also: cellulose-bound) [SEQ ID NO:73 peptide] | – | – | binds | binding result (GFP-RIα D/D [4]): binds |
| VQGNTDEAQEELA (also: cellulose-bound) [SEQ ID NO:96 peptide] | no binding | no binding | – | – |
| LAWKIAKMIVSDIMQQ (also: cellulose-bound) [SEQ ID NO:76 peptide] | – | – | binds | – |
| TDEAQEELAWKIAKMIVSDIMQQ (also: cellulose-bound) [SEQ ID NO:69 peptide] | – | – | binds | binding result (GFP-RIα D/D [4]): binds |
